Consider two molecules from US20180201654A1, “PEPTIDE INHIBITORS OF HAUSP DEUBIQUITINASE” (priority 2012, published 2018).

The target of assay [1] is T1, HAUSP TRAF domain HAUSP^62-205 (Homo sapiens, UniProt Q93009). The assay can be described thus: Size exclusion chromatography of complex formation in excess MDM2^137-152. Also on record: hexahistidine tag (TEV-cleavable) (cleaved yes); made in house; host or cells: E. coli BL21 (DE3) RIPL. Format: binding. The conditions noted are these: in the presence of a 5-fold molar excess of MDM2^137-152. In general terms: In gel filtration, larger molecules generally elute earlier.

The target in assay [2] is T1, HAUSP TRAF domain HAUSP^62-205. Type of assay: binding. The conditions noted are these: for Ka / TΔS / ΔG: ITC, 20° C., pH 7.0. Set-up: All residues of HAUSP^62-205, with the exception of Asp^62, are included in the final model; hexahistidine tag (TEV-cleavable) (cleaved yes); made in house; host or cells: E. coli BL21 (DE3) RIPL. Here is the method: FIG. 5. Typical isothermal titration calorimetric measurements of the interactions between the HAUSP TRAF domain and the vIRF4 protein derivatives or other peptides. Purified proteins and synthesized peptides were reconstituted in 150 mM NaCl and 10 mM HEPES (pH 7.0). The calorimetric assays were performed using a VPITC system. All experiments were carried out with a stirring speed of 300 rpm at 20° C., and the thermal power was recorded every 10 s. Data were analyzed using the ORIGIN software package (version 7.0). […] Each titration against the HAUSP TRAF domain is indicated in each panel.
Purified proteins and synthesized peptides (Peptron Inc., Deajeon, Korea) were reconstituted in 150 mM NaCl and 10 mM HEPES (pH 7.0). The calorimetric assays were performed using a VP-ITC system (MicroCal Inc., Northampton, Mass.). Samples were degassed by vacuum aspiration for 15 min prior to loading. All experiments were carried out with a stirring speed of 300 rpm at 20° C., and the thermal power was recorded every 10 s. Data were analyzed using the ORIGIN software package (version 7.0) supplied with the instrument. […] (SEQ ID NO: 6); EBNA1^435-449, […] (SEQ ID NO: 7); MDM2^137-152, […] […] (SEQ ID NO: 10). Each set of ITC experiments was repeated two or three times.

T1 sequence (Q93009 62-205): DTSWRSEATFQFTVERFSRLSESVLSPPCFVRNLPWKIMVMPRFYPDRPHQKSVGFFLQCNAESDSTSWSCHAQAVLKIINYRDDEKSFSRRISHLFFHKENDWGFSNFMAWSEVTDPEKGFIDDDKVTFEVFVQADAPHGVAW

B1: vIRF4^153-216 (protein)
chain: SDTREQSYEEAGAAAPAPPKAPSGLRGRPRKSNRYYNVGDITTEQKAACSVWIPVNEGASTSGM
In the case of B1, the “complex formation with the TRAF domain” value in assay [1] is on record as “formed a stable complex”. In addition, the “TRAF binding affinity (in words)” value in assay [2] (ITC comparison) is “comparable TRAF binding affinity”. Further, in assay [2], the Ka is 1.84 ± 0.10 10^6 M^−1, the TΔS is -7.35 kcal/mol and the ΔG is -8.41 kcal/mol.

B2: vIRF4^153-256 (protein)
chain: SDTREQSYEEAGAAAPAPPKAPSGLRGRPRKSNRYYNVGDITTEQKAACSVWIPVNEGASTSGMGSSGTRQVTQASSFTWRVPGDPPAPSTLTGPSDPHSSGAG
B2: in assay [2], the Ka is listed as 13.20 ± 0.85 10^6 M^−1, the TΔS is -10.05 kcal/mol and the ΔG is -7.64 kcal/mol.
